Assay results: article PMC6553639 (Science signaling, 2018)
Changes are numbered by the printed parent chain. No end group written: not given here. *: point of attachment. FITC = O=C1OC2(c3ccc(O)cc3Oc3cc(O)ccc32)c2ccc(NC(=S)*)cc21

T1: TRIB1(84–372) (human, UniProt Q96RU8 84-372)
T1 sequence (looked up): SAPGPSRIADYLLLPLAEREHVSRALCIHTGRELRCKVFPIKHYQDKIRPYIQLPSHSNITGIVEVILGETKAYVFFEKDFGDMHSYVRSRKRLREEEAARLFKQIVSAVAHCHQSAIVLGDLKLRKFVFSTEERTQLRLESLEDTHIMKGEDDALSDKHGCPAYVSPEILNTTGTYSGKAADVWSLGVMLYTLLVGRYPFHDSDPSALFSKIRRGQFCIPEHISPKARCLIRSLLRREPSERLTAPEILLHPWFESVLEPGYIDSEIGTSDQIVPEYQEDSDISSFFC

T2: GST-TRIB1(84–372) wild type (human, UniProt Q96RU8 84-372)
T2 sequence (looked up): T1 sequence (looked up)

T3: GST-TRIB1(84–372) S240W (human, UniProt Q96RU8 84-372, S240W)
T3 sequence (looked up): T1 sequence (looked up) with S157W


Assays:
TRIB1(84–372) [1] = target: T1, TRIB1(84–372); experiment: differential scanning fluorimetry
[2] = target: COP1 WD40 domain (376–731) (UniProt Q8NHY2 376-731); experiment: fluorescence polarisation
Chain of COP1 WD40 domain (376–731) (Q8NHY2 376-731): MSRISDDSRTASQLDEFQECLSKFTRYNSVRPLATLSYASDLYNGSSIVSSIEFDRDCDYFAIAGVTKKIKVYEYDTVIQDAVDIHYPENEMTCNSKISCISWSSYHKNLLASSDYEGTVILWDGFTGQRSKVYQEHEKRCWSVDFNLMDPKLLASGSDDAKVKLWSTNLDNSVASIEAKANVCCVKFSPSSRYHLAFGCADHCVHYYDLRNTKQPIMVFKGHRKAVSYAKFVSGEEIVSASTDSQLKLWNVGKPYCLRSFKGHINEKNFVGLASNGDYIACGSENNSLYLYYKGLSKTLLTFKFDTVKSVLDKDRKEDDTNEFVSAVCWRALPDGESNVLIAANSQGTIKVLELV

TRIB1(84–372) [3] = target: T1, TRIB1(84–372); experiment: ITC
[4] = target: T2, GST-TRIB1(84–372) wild type; experiment: pull-down
GST-TRIB1(84–372) S240W = target: T3, GST-TRIB1(84–372) S240W; experiment: pull-down

| binding result [2] | binding result (TRIB1(84–372) [3]) | Binder | further results |
| --- | --- | --- | --- |
| – | binds | PAMYDDESAIDFSAYIDSMAAVP (peptide, UniProt P49716 50-72, looked up) [C/EBPδ(50–72) fused to MBP] | – |
| – | binds | GGICEHETSIDISAYIDPAAFND (peptide, UniProt P49715 53-75, looked up) [His6MBP-C/EBPα(53–75)] | binding result [4]: binds; binding result (GST-TRIB1(84–372) S240W): binds |
| binds | – | {FITC}-SEIGTSDQIVPEYQEDSDI (peptide, UniProt Q96RU8 349-367, looked up) [FITC-TRIB1(349–367)] | – |

The next lines start with the binder.

| Binder | binding result [2] | binding result (TRIB1(84–372) [3]) | further results |
| --- | --- | --- | --- |
| GGICEHETSIDISAYIDPAAFND (peptide, UniProt P49715 53-75, looked up) [C/EBPα degron peptide (53 to 75)] | – | – | binding result (TRIB1(84–372) [1]): binds |
| SEIGTSDQIVPEYQEDSDI (peptide, UniProt Q96RU8 349-367, looked up) [TRIB1 peptide (residues 349 to 367)] | binds | – | – |
| GDMCEHEASIDLSAYIESGEEQL (peptide, UniProt Q15744 31-53, looked up) [C/EBPε(31–53) fused to MBP] | – | binds | – |
